This is an account of results in patent publication US11306156.

Assay [1] has as its target D3H44 Fab heavy chain L143E_K145T_Q179E, ABD2-His6 tagged. In words: LCCA, SPR of light chain tags; L1:L2 DNA 1:3 normalized to 1:1; competing light chain m16.
The target of assay [2] is D3H44 Fab heavy chain L143R, ABD2-His6 tagged. The assay is described as above.
The target in assay [3] is D3H44 Fab heavy chain L143E_K145T_Q179E, ABD2-His6 tagged. In words: LCCA, SPR of light chain tags; L1:L2 DNA 1:9 normalized to 1:1; competing light chain m16.
The target of assay [4] is D3H44 Fab heavy chain L143R, ABD2-His6 tagged. Described as above.
The target in assay [5] is D3H44 Fab heavy chain S186K, ABD2-His6 tagged. Briefly: LCCA, SPR of light chain tags; L1:L2 DNA 1:3 normalized to 1:1; competing light chain m19.
The target of assay [6] is D3H44 Fab heavy chain L143E_K145T_Q179D, ABD2-His6 tagged. The assay is described as above.
The target in assay [7] is D3H44 Fab heavy chain S186R, ABD2-His6 tagged. The assay is described as above.
Assay [8] has as its target D3H44 Fab heavy chain S186K, ABD2-His6 tagged. Briefly: LCCA, SPR of light chain tags; L1:L2 DNA 1:9 normalized to 1:1; competing light chain m19.
For assay [9], the target named is D3H44 Fab heavy chain L143E_K145T_Q179D, ABD2-His6 tagged. The assay is described as above.
The target of assay [10] is D3H44 Fab heavy chain S186K, ABD2-His6 tagged. Briefly: LCCA, SPR of light chain tags; L1:L2 DNA 1:3 normalized to 1:1; competing light chain m16.
Assay [11] concerns the target D3H44 Fab heavy chain Q179K, ABD2-His6 tagged. The description is as above.
The target in assay [12] is D3H44 Fab heavy chain Q179R, ABD2-His6 tagged. Described as above.
Assay [13] addresses D3H44 Fab heavy chain S186R, ABD2-His6 tagged. The description is as above.
Assay [14] concerns the target D3H44 Fab heavy chain S186K, ABD2-His6 tagged. In words: LCCA, SPR of light chain tags; L1:L2 DNA 1:9 normalized to 1:1; competing light chain m16.
The target in assay [15] is D3H44 Fab heavy chain Q179K, ABD2-His6 tagged. Described as above.
The target of assay [16] is D3H44 Fab heavy chain Q179R, ABD2-His6 tagged. The description is as above.
Assay [17] has as its target D3H44 Fab heavy chain S186R, ABD2-His6 tagged. The assay is described as above.
Assay [18] addresses D3H44 Fab heavy chain S186K, ABD2-His6 tagged. In words: LCCA, SPR of light chain tags; L1:L2 DNA 1:3 normalized to 1:1; competing light chain m18.
The target of assay [19] is D3H44 Fab heavy chain L143E_K145T_Q179D, ABD2-His6 tagged. The assay is described as above.
Assay [20] addresses D3H44 Fab heavy chain S186R, ABD2-His6 tagged. The assay is described as above.
Assay [21] deals with D3H44 Fab heavy chain S186K, ABD2-His6 tagged. In words: LCCA, SPR of light chain tags; L1:L2 DNA 1:3 normalized to 1:1; competing light chain m23.
The target in assay [22] is D3H44 Fab heavy chain L143E_K145T_Q179E, ABD2-His6 tagged. Described as above.
For assay [23], the target named is D3H44 Fab heavy chain L143E_K145T_Q179D, ABD2-His6 tagged. The assay is described as above.
The target in assay [24] is D3H44 Fab heavy chain S186R, ABD2-His6 tagged. Described as above.
Assay [25] addresses D3H44 Fab heavy chain S186K, ABD2-His6 tagged. In words: LCCA, SPR of light chain tags; L1:L2 DNA 1:9 normalized to 1:1; competing light chain m18.
The target in assay [26] is D3H44 Fab heavy chain L143E_K145T_Q179D, ABD2-His6 tagged. The description is as above.

For “D3H44 light chain Q124E_V133E, HA or FLAG tagged”, the H1L1:H1L2 normalized median ratio was 7% in [1] and 8% in assay [3]. Also, the H2L2:H2L1 normalized median ratio is 95% in assay [2] and 89% in assay [4].

“D3H44 light chain Q124K_T178R, HA or FLAG tagged”: the H2L2:H2L1 normalized median ratio is 2% in assay [5], 3% in [7] and 5% in assay [8]. Moreover, the H1L1:H1L2 normalized median ratio amounted to 85% in [6] and 89% in assay [9]. The H1L1:H1L2 normalized median scalar value ln(r1/f1) in [6] was found to be 1.74; in assay [9], 2.05.

As for “D3H44 light chain Q124E_Q160E_T178E, HA or FLAG tagged”, the H2L2:H2L1 normalized median ratio in assay [10] was found to be 98%; in assay [11], 95%; in [12], 95%; in [13] it was 94%; in assay [14] it was 90%; in assay [15], 84%. Also, the results for the H2L2:H2L1 normalized median ratio in assay [16] and in assay [17] were 86% and 87%, respectively. Also, the H1L1:H1L2 normalized median ratio in assay [1] worked out at 9%; in [3] it was 10%.

For the substance “D3H44 light chain Q124E_T180E, HA or FLAG tagged”, the H2L2:H2L1 normalized median ratio in [18] came to 98%; in [20] it was 97%; in assay [13] it was 96%; in assay [21], 97%; in assay [24], 97%; in [25], 95%. In addition, the H1L1:H1L2 normalized median ratio was 15% in [19]; 15% in [1]; 16% in assay [22]; 16% in assay [23]; 11% in [26].
